# T1: VCAM (Panvera) (UniProt P19320 25-698, limits assumed)
# T1 sequence (looked up): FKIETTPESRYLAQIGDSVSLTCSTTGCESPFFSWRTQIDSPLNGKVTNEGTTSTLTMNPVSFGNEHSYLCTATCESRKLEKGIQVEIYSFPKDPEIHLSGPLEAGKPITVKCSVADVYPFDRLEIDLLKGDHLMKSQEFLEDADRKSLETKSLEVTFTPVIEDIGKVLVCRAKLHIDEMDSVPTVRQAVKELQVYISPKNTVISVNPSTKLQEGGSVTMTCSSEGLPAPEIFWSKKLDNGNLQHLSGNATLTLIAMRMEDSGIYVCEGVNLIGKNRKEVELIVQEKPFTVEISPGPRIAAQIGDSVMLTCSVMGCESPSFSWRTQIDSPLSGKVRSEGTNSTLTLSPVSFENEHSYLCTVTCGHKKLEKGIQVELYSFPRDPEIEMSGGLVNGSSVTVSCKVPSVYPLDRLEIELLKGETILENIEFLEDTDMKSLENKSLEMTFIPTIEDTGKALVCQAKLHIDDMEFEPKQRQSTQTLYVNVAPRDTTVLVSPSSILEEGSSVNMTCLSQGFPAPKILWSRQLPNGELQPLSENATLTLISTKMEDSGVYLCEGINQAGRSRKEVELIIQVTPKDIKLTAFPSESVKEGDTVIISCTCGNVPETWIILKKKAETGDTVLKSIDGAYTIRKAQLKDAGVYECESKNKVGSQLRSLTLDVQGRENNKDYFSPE
# B1: anti-MAdCAM monoclonal antibody 9.8.2 (antibody, human IgG4, kappa, V domains shown)
# VH: QVQLVESGGGVVQPGRSLRLSCAASGFTFSSYGMHWVRQAPGKGLEWVAVIWYDGSNEYYADSVKGRFTISRDNSKNTLYLQMNSLRAEDTAVYYCARGAYHFAYWGQGTLVTVSS
# VL: DIQMTQSPSSLSASVGDRVTITCQASQDISNYLNWYQQKPGKAPKLLIYDASNLETGVPSRFSGSGSGTDFTFTISSLQPEDIATYSCQHSDNLSITFGQGTRLEIKR
# notes: fully human IgG4 kappa from hybridoma; signal peptide left out; kappa chain stained positive for glycosylation
# B2: anti-MAdCAM monoclonal antibody 7.26.4 (antibody, human IgG2, kappa, V domains shown)
# VH: QVQLVQSGAEVKKPGASVKVSCEASGYTFTSYGIDWVRQAPGQGLEWMGWISVYSGNTNYAQKLQGRVTMSTDTSTSTAYMELRSLRSDDTAVYYCAREGSSSSGDYYYGMDVWGQGTTVTVSS
# VL: DIVMTQTPLSLSVTPGQPASISCKSNQSLLYSDGKTYLFWYLQKPGQPPQLLIYEVSNRFSGVPDRFSGSGSGTDFTLKISRVEAEDVGVYYCMQSIQLPWTFGQGTKVEIKR
# notes: fully human IgG2 kappa from hybridoma; signal peptide left out; kappa chain glycosylation confirmed
# What was measured:
# [1] = molecular target: T1, VCAM (Panvera); assay: cell-based or functional assay
# [2] = molecular target: Fibronectin cell binding fragment (110 Kd, Europa Bioproducts Ltd, Cat. No. UBF4215-18) (UniProt P02751-1 722-1635); assay: cell-based or functional assay
# [3] = molecular target: T2, MAdCAM-IgG1 Fc fusion protein (human); assay: adhesion of calcein-loaded α4β7+ JY cells to coated MAdCAM-IgG1 Fc, blocked by antibody
# T2 construct: Expressed in CHO-DHFR cells; also called MAdCAM-IgFc; soluble MAdCAM (in the sandwich ELISA)
# Procedure: (§1) The cells were washed twice with RPMI 1640 media (Gibco) containing 2 mM L-glutamine (Gibco) by centrifugation (240 g), resuspending the final cell pellet at 2×10⁶ cells/mL in RPMI 1640 for Calcein AM loading. Calcein AM (Molecular Probes #C-3099) was added to the cells as a 1:200 dilution in DMSO (ca. final concentration 5 μM) and the cells protected from light during the course of the incubation (37° C. for 30 min). During this cell incubation step the antibodies to be tested, were diluted as follows: for single dose testing, the antibodies were made up to 3 μg/mL (1 μg/mL final) in 0.1 mg/mL BSA (Sigma#A3059) in PBS; for full IC₅₀ curves, the antibodies were diluted in 0.1 mg/mL BSA/PBS, with 3 μg/mL (1 μg/mL final) being the top concentration, then doubling dilutions (1:2 ratio) across the plate. The final well of the row was used for determining total binding, so 0.1 mg/ml BSA in PBS was used.
# After blocking, the plate contents were flicked out and 50 μL of antibodies/controls were added to each well and the plate incubated at 37° C. for 20 min. During this time, Calcein-loaded JY cells were washed once with RPMI 1640 media containing 10% fetal bovine serum and once with 1 mg/mL BSA/PBS by centrifugation, resuspending the final cell pellet to 1×10⁶/mL in 1 mg/mL BSA/PBS. 100 μL of cells were added to each well of the U bottomed plate, the plate sealed, briefly centrifuged (1000 rpm for 2 min) and the plate then incubated at 37° C. for 45 min. At the end of this time, the plates were washed with a Skatron plate washer and fluorescence measured using a Wallac Victor² 1420 Multilabel Reader (excitation λ 485 nm, emission λ 535 nm count from top, 8 mm from bottom of plate, for 0.1 sec with normal emission aperture). For each antibody concentration, percent adhesion was expressed as a percentage of maximal fluorescence response in the absence of any antibody minus fluorescence associated with non-specific binding. […]
# [4] = molecular target: T2, MAdCAM-IgG1 Fc fusion protein; assay: MAdCAM-IgG1 Fc fusion / JY cell adhesion assay, mean IC50
# Procedure: as §1
# After blocking, the plate contents were flicked out and 50 μL of antibodies/controls were added to each well and the plate incubated at 37° C. for 20 min. During this time, Calcein-loaded JY cells were washed once with RPMI 1640 media containing 10% fetal bovine serum and once with 1 mg/mL BSA/PBS by centrifugation, resuspending the final cell pellet to 1×10⁶/mL in 1 mg/mL BSA/PBS. 100 μL of cells were added to each well of the U bottomed plate, the plate sealed, briefly centrifuged (1000 rpm for 2 min) and the plate then incubated at 37° C. for 45 min. At the end of this time, the plates were washed with a Skatron plate washer and fluorescence measured using a Wallac Victor² 1420 Multilabel Reader (excitation λ 485 nm, emission λ 535 nm count from top, 8 mm from bottom of plate, for 0.1 sec with normal emission aperture). For each antibody concentration, percent adhesion was expressed as a percentage of maximal fluorescence response in the absence of any antibody minus fluorescence associated with non-specific binding. The IC₅₀ value is defined as the anti-MAdCAM antibody concentration at which the adhesion response is decreased to 50% of the response in the absence of anti-MAdCAM antibody.
# T2 sequence (chain, as listed by the source limits assumed): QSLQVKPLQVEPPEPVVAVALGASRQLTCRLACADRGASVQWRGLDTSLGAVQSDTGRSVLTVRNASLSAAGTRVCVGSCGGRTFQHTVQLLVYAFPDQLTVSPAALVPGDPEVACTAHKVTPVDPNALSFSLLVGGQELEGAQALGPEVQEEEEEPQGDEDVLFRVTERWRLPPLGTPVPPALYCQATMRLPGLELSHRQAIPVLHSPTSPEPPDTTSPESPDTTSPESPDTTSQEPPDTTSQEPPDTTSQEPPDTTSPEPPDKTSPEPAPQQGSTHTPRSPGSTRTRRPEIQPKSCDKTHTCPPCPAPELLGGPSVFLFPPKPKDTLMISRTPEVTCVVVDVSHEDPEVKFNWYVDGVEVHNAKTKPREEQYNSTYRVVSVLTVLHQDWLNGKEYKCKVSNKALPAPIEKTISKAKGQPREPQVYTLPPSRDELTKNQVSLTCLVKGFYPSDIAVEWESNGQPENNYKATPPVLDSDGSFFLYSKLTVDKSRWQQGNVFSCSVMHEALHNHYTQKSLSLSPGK
# Chain of Fibronectin cell binding fragment (110 Kd, Europa Bioproducts Ltd, Cat. No. UBF4215-18) (P02751 other isoform, or with tags, fused parts or gaps limits assumed): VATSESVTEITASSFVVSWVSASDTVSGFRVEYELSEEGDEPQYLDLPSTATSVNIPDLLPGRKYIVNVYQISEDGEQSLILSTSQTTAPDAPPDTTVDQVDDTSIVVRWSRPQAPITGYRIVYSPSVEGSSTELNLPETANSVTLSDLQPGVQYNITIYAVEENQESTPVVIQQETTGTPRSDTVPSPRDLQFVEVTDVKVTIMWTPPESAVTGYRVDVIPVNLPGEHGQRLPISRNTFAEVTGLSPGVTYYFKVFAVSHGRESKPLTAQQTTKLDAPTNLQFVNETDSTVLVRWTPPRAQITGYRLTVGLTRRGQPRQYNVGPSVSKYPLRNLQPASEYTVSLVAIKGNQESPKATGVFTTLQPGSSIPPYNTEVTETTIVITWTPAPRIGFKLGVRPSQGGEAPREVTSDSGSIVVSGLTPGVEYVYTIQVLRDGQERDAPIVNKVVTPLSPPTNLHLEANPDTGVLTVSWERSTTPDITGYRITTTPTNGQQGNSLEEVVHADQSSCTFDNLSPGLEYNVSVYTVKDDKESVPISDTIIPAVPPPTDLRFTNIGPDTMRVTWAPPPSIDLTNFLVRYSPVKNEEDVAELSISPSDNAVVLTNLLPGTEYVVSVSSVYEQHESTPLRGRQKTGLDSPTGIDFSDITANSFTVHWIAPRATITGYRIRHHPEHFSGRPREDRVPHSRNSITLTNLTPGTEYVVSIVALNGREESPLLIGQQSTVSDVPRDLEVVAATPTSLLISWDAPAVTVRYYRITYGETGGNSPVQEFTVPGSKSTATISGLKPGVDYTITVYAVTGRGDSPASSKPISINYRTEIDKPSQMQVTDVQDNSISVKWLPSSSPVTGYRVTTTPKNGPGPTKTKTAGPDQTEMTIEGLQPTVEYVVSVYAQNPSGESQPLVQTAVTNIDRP
Binder,inhibition of adhesion of α4β1+/α5β1+ Jurkat T-cells to coated VCAM [1],inhibition of adhesion of α4β1+/α5β1+ Jurkat T-cells to coated Fibronectin cell binding fragment [2],IC50 [3],IC50 [4]
B1,> 100 fold,> 100 fold,< 0.1 µg/mL,–
B2,> 100 fold,> 100 fold,< 0.1 µg/mL,0.021 µg/mL
